The source of these data is PMC7840946 (Nature Communications, 2021).

The target in the assay is PstS1 (Rv0934), recombinant, wild type (Mycobacterium tuberculosis H37Rv, UniProt P9WGU1). The assay is described as follows: SPR. Conditions: both partners purified.
Sequence of PstS1 (Rv0934), recombinant, wild type (P9WGU1 25-374): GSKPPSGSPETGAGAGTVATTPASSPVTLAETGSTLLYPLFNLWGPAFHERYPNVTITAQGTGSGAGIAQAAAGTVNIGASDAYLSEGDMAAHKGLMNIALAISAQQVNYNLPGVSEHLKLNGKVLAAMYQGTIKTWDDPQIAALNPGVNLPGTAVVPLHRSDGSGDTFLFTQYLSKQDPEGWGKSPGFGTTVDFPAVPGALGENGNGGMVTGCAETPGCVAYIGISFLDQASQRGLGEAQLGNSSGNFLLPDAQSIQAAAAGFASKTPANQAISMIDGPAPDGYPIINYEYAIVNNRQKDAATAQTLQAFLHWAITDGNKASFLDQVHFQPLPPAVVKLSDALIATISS

B1: p4-36gl, predicted germline version of mAb p4-36 (antibody, V domains shown)
VH: EVQLVESGGGLVQPGRSLRLSCTASGFTFGDYAMSWVRQAPGKGLEWVGFIRSKAYGGTTEYAASVKGRFTISRDDSKSIAYLQMNSLKTEDTAVYYCTGPRPYYDSSGYYPYYFDYWGQGTLVTVSS
VL: QSALTQPRSVSGSPGQSVTISCTGTSSDVGGYNYVSWYQQHPGKAPKLMIYDVSKRPSGVPDRFSGSKSGNTASLTISGLQAEDEADYYCCSYAGSYTYVVFGGGTKLTVL
notes: also called germline (gl) version of p4-36
In the case of B1, the “fold reduction in affinity against the mature p4-36” value amounted to 4.7 fold.
